Values quoted from earlier work as cited in patent US6406710B1, “Protein occlusion for delivery of small molecules” (priority 1998, dated 2002).

Settings: relatively high doses, human clinical trials

B1: BDNF: Brain Derived Neurotrophic Factor, a neurotrophin proposed as carrier protein (protein, UniProt P23560 19-247, looked up)
Neurotrophic factor BDNF …: APMKEANIRGQGGLAYPGVRTHGTLESVNGPKAGSRGLTSLADTFEHVIEELLDEDQKVRPNEENNKDADLYTSRVMLSSQVPLEPPLLFLLEEYKNYLDAANMSMRVRRHSDPARRGELSVCDSISEWVTAADKKTAVDMSGGTVTVLEKVPVSKGQLKQYFYETKCNPMGYTKEGCRGIDKRHWNSQCRTTQSYVRALTMDSKKRIGWRFIRIDTSCVCTLTIKRGR
tolerability: well tolerated with insignificant adverse effects
